Results taken from patent publication US20180112005A1 (published 2018).

T1: murine Notch4 NRR (mouse, UniProt P31695 1166-1443, limits assumed)
T1 construct: domain: NRR; It is split here into the two species; also called mouse NRR4
T1 sequence (looked up): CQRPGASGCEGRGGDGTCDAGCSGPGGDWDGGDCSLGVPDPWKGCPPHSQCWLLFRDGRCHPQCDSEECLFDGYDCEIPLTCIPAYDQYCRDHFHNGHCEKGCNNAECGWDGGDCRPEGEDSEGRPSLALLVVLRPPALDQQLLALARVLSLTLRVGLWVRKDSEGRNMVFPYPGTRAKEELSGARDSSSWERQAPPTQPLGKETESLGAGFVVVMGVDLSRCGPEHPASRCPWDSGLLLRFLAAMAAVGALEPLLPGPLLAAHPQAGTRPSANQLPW

T2: murine Notch2 NRR (mouse, UniProt O35516 1425-1679)
T2 construct: domain: NRR; It is split here into the two species; also called mouse NRR2
T2 sequence (looked up): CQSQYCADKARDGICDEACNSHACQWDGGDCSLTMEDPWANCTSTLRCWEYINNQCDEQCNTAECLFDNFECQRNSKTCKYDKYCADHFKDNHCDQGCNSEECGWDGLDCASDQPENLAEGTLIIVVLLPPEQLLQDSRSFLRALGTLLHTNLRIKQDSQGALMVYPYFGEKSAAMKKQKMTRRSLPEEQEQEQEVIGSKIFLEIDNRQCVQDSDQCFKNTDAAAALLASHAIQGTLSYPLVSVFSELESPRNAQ

T3: human Notch4 NRR (human, UniProt Q99466 1170-1447, limits assumed)
T3 construct: domain: NRR; It is split here into the two species; also called human NRR4
T3 sequence (looked up): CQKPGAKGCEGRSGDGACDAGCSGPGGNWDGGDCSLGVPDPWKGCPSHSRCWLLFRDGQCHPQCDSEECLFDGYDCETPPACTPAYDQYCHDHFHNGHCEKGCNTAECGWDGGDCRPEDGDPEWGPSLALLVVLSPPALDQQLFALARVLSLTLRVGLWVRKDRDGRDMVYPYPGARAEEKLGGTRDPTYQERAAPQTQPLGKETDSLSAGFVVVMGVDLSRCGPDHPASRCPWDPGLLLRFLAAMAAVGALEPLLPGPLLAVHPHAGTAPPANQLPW

T4: human Notch2 NRR (human, UniProt Q04721 1425-1677)
T4 construct: domain: NRR; It is split here into the two species; also called human NRR2
T4 sequence (looked up): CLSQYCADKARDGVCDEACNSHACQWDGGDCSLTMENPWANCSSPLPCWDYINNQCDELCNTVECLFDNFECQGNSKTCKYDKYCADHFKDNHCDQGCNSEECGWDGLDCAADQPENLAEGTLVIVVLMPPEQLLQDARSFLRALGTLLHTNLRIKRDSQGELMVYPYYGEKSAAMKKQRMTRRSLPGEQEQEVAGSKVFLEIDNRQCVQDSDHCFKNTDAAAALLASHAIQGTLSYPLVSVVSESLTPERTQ

B1: Antibody A-1, phage-displayed Fab clone (Fab, V domains shown)
VH: EVQLVESGGGLVQPGGSLRLSCAASGFTFSSYWIHWVRQAPGKGLEWVARINPPNGSAHYADSVKGRFTISADTSKNTAYLQMNSLRAEDTAVYYCARGSGFRWVMDYWGQGTLVTVSS
VL: DIQMTQSPSSLSASVGDRVTITCRASQDVSTAVAWYQQKPGKAPKLLIYSASFLYSGVPSRFSGSGSGTDFTLTISSLQPEDFATYYCQQSYTTPATFGQGTKVEIKR
B2: Antibody A (antibody, IgG1, V domains shown)
VH: EVQLVESGGGLVQPGGSLRLSCAASGFTFSSYWIHWVRQAPGKGLEWVARINPSNGSTNYADSVKGRFTISADTSKNTAYLQMNSLRAEDTAVYYCARGSGFRWVMDYWGQGTLVTVSS
VL: DIQMTQSPSSLSASVGDRVTITCRASQDVSTAVAWYQQKPGKAPKLLIYSASFLYSGVPSRFSGSGSGTDFTLTISSLQPEDFATYYCQQSYTTPPTFGQGTKVEIKR
notes: also called anti-Notch1 NRR Antibody A; Antibody A-hIgG1
B3: Antibody A-2 (antibody, IgG1, V domains shown)
VH: EVQLVESGGGLVQPGGSLRLSCAASGFTFSSYWIHWVRQAPGKGLEWVARINPPNRSNQYADSVKGRFTISADTSKNTAYLQMNSLRAEDTAVYYCARGSGFRWVMDYWGQGTLVTVSS
VL: DIQMTQSPSSLSASVGDRVTITCRASQDVSTAVAWYQQKPGKAPKLLIYSASFLYSGVPSRFSGSGSGTDFTLTISSLQPEDFATYYCQQFYTTPSTFGQGTKVEIKR
notes: also called Antibody A-2-hIgG1
B4: Antibody A-2, phage-displayed Fab clone (Fab, V domains shown)
VH: EVQLVESGGGLVQPGGSLRLSCAASGFTFSSYWIHWVRQAPGKGLEWVARINPPNRSNQYADSVKGRFTISADTSKNTAYLQMNSLRAEDTAVYYCARGSGFRWVMDYWGQGTLVTVSS
VL: DIQMTQSPSSLSASVGDRVTITCRASQDVSTAVAWYQQKPGKAPKLLIYSASFLYSGVPSRFSGSGSGTDFTLTISSLQPEDFATYYCQQFYTTPSTFGQGTKVEIKR
B5: Antibody A-3 (antibody, V domains shown)
VH: EVQLVESGGGLVQPGGSLRLSCAASGFTFSSYWIHWVRQAPGKGLEWVARINPANGSTRYADSVKGRFTISADTSKNTAYLQMNSLRAEDTAVYYCARGSGFRWVMDYWGQGTLVTVSS
VL: DIQMTQSPSSLSASVGDRVTITCRASQDVSTAVAWYQQKPGKAPKLLIYSASFLYSGVPSRFSGSGSGTDFTLTISSLQPEDFATYYCQQSFSTPATFGQGTKVEIKR
B6: Antibody A-3, phage-displayed Fab clone (Fab, V domains shown)
VH: EVQLVESGGGLVQPGGSLRLSCAASGFTFSSYWIHWVRQAPGKGLEWVARINPANGSTRYADSVKGRFTISADTSKNTAYLQMNSLRAEDTAVYYCARGSGFRWVMDYWGQGTLVTVSS
VL: DIQMTQSPSSLSASVGDRVTITCRASQDVSTAVAWYQQKPGKAPKLLIYSASFLYSGVPSRFSGSGSGTDFTLTISSLQPEDFATYYCQQSFSTPATFGQGTKVEIKR
B7: Antibody A-1 (antibody, IgG1, V domains shown)
VH: EVQLVESGGGLVQPGGSLRLSCAASGFTFSSYWIHWVRQAPGKGLEWVARINPPNGSAHYADSVKGRFTISADTSKNTAYLQMNSLRAEDTAVYYCARGSGFRWVMDYWGQGTLVTVSS
VL: DIQMTQSPSSLSASVGDRVTITCRASQDVSTAVAWYQQKPGKAPKLLIYSASFLYSGVPSRFSGSGSGTDFTLTISSLQPEDFATYYCQQSYTTPATFGQGTKVEIKR
notes: also called Antibody A-1-hIgG1

Legend:
[1] = target: T5, mFLAG-EGF34+NRR-His6, the murine Notch1 NRR immunogen (mouse Notch1 V1307-Q1723) (mouse, UniProt Q01705 1307-1723); test: competitive phage-binding ELISA; phage-displayed Fab pre-mixed with serial dilutions of soluble NRR1, then captured on NRR1-coated plate
T5 construct: N-terminal FLAG tag and C-terminal His tag, expressed in 293-F cells; also called mNotch1 NRR; mouse Notch1 NRR
Method: (§1) To identify the phage antibodies that bound to both human and murine Notch1 NRR, all unique clones were tested for binding to human and murine Notch1 by ELISA. The affinities of phage antibodies were ranked using single spot competition ELISA as described below in this Example. The phage antibody IC50 values were further determined using competitive phage-binding ELISA essentially described in Lee, C. V., et al. (2004) J Mol Biol 340, 1073-93. Briefly, NUNC 96 well Maxisorp immunoplates were coated overnight at 4° C. with 1 μg/ml human NRR1 or murine NRR1, and were blocked for 1 hour at room temperature with blocking buffer PBST (PBS and 1% BSA and 0.05% Tween 20). Phage was mixed with serial dilution of human or murine NRR1 at room temperature for 1 hour before the mixture was added to human and murine NRR1 coated plate. Bound phage were detected with anti-M13 HRP conjugates, developed with TMB substrate for approximately 5 minutes, quenched with 1M H₃PO₄, and read spectrophotometrically at 450 nm.
(§2) In comparison to the OD_{450 nm} reduction (%) of the well of parental phage (100%), clones that had the OD_{450 nm} reduction (%) lower than 50% were picked for sequence analysis. Unique clones were selected for phage preparation to determine binding affinity (phage IC50) by comparison with parental clones (Table 4).

[2] = target: T6, hFLAG-EGF34+NRR-His6 (101V), the human Notch1 NRR immunogen (human Notch1 V1307-Q1733) (human, UniProt P46531 1307-1733); test: as above
T6 construct: Secreted from Sf-9 cells; also called hNotch1 NRR; human NRR1
Method: as §1, §2

[3] = target: T5, mFLAG-EGF34+NRR-His6, the murine Notch1 …; test: SPR (BIAcore-3000), IgG captured on rabbit anti-human IgG, NRR1-ECD protein injected 3.9-500 nM, 25 C, 1:1 Langmuir
Method: (§3) To further characterize the binding affinity and binding kinetics of the anti-Notch1 NRR Mabs, surface plasmon resonance (SRP) measurement with a BIAcore™-3000 was used (BIAcore, Inc., Piscataway, N.J.). Briefly, carboxymethylated dextran biosensor chips (CM5, BIAcore Inc.) were activated with N-ethyl-N′-(3-dimethylaminopropyl)-carbodiimide hydrochloride (EDC) and N-hydroxysuccinimide (NHS) according to the supplier's instructions. Rabbit anti human antibody (Pierce) was diluted with 10 mM sodium acetate, pH 4.8, into 20 μg/ml before injection at a flow rate of 5 μl/minute to achieve approximately 3000 response units (RU) of coupled antibody. Next, 1M ethanolamine was injected to block unreacted groups. Anti-NRR1 mab (formatted as a full-length IgG) was captured by rabbit anti-human IgG coated on the chips to achieve approximately 200 response units (RU). For kinetics measurements, two-fold serial dilutions of human NRR1-ECD or murine NRR1-ECD proteins (3.9 nM to 500 nM) were injected in PBT buffer (PBS with 0.05% Tween 20) at 25° C. with a flow rate of 30 μl/min. Association rates (kₒₙ) and dissociation rates (koff) were calculated using a simple one-to-one Langmuir binding model (BIAcore Evaluation Software version 3.2). The equilibrium dissociation constant (KD) was calculated as the ratio koff/kₒₙ.
(§4) “NA” signifies that the measurement was not performed.

[4] = target: T6, hFLAG-EGF34+NRR-His6 (101V), the human …; test: as above
Method: as §3, §4

murine Notch4 NRR = target: T1, murine Notch4 NRR; test: cross-reactivity test of the IgG (Table 3; method not detailed)
human Notch3 NRR = target: T7, human Notch3 NRR (human, UniProt Q9UM47 1378-1643, limits assumed); test: as above
T7 construct: domain: NRR; It is split here into the two species; also called human NRR3

murine Notch2 NRR = target: T2, murine Notch2 NRR; test: as above
human Notch4 NRR = target: T3, human Notch4 NRR; test: as above
murine Notch3 NRR = target: T8, murine Notch3 NRR (mouse, UniProt Q61982 1379-1643, limits assumed); test: as above
T8 construct: domain: NRR; It is split here into the two species; also called mouse NRR3

human Notch2 NRR = target: T4, human Notch2 NRR; test: as above
[5] = target: human Notch1 expressed on NIH-3T3 cells (human, UniProt P46531 19-2555); test: cell-based or functional assay

T5 sequence (Q01705 other isoform, or with tags, fused parts or gaps): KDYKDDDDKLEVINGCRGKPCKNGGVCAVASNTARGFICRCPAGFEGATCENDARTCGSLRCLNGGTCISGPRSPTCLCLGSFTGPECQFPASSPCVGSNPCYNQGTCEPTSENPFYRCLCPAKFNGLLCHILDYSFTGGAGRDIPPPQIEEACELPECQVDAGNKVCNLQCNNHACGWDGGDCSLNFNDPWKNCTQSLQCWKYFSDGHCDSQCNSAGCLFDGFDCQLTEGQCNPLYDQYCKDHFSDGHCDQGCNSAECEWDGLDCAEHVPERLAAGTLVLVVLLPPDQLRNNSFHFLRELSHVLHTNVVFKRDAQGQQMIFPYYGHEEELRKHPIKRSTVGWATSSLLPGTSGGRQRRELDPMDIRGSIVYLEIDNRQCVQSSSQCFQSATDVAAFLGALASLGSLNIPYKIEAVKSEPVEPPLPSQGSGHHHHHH
T7 sequence (Q9UM47 1378-1643 limits assumed): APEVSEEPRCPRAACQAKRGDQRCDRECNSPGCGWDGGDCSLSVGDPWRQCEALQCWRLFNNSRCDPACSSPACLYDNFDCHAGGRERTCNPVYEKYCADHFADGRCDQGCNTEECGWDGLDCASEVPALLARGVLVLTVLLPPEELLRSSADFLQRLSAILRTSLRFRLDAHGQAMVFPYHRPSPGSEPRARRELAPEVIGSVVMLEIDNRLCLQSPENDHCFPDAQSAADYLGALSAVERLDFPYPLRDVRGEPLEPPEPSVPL
T8 sequence (Q61982 1379-1643 limits assumed): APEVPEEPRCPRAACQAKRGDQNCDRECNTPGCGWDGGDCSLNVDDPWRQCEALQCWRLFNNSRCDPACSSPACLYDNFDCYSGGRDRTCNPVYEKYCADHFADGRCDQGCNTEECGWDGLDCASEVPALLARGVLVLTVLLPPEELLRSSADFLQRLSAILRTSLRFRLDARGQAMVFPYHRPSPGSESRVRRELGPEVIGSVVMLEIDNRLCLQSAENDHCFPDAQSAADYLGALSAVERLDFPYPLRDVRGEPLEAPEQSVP

Binder	IC50 [1]	IC50 [2]	Kd [3]	koff [3]	kon [3]	Kd [4]	koff [4]	kon [4]	binding result (murine Notch4 NRR)	binding result (human Notch3 NRR)	binding result (murine Notch2 NRR)	binding result (human Notch4 NRR)	binding result (murine Notch3 NRR)	binding result (human Notch2 NRR)	Co-culture blocking, IC50 [5]
B1	0.6 nM	0.8 nM	–	–	–	–	–	–	–	–	–	–	–	–	–
B2	–	–	231 nM	0.021 s⁻¹	91000 M⁻¹ s⁻¹	134 nM	0.011 s⁻¹	82000 M⁻¹ s⁻¹	no binding	no binding	no binding	no binding	no binding	no binding	~0.1 µg/mL
B3	–	–	3.09 nM	0.00034 s⁻¹	110000 M⁻¹ s⁻¹	2.53 nM	0.00022 s⁻¹	87000 M⁻¹ s⁻¹	–	–	–	–	–	–	–
B4	0.5 nM	0.5 nM	–	–	–	–	–	–	–	–	–	–	–	–	–
B5	–	–	13 nM	0.0012 s⁻¹	92000 M⁻¹ s⁻¹	5.88 nM	0.0004 s⁻¹	68000 M⁻¹ s⁻¹	–	–	–	–	–	–	–
B6	2.5 nM	0.5 nM	–	–	–	–	–	–	–	–	–	–	–	–	–
B7	–	–	3.88 nM	0.00033 s⁻¹	85000 M⁻¹ s⁻¹	3.43 nM	0.00023 s⁻¹	67000 M⁻¹ s⁻¹	–	–	–	–	–	–	–
